One block for each sequence: values may come before it.
Columns and labels:
[1] = target: HLA-A*03:01; assay: IEDB peptide-MHC binding, purified MHC/direct/fluorescence; filed as Kd, often an IC50 or EC50 that approximates it; ≥ and ≤ were set here for values at or beyond the usual limits of such assays
[2] = target: HLA-B*58:01; assay: as above
[3] = target: HLA-B*27:05; assay: as above
[4] = target: HLA-B*18:01; assay: as above
[5] = target: HLA-B*57:01; assay: as above; details: source organism: Listeria monocytogenes
[6] = target: HLA-A*31:01; assay: as above
[7] = target: HLA-B*40:01; assay: as above
[8] = target: HLA-B*46:01; assay: as above
[9] = target: HLA-B*15:01; assay: as above
[10] = target: HLA-B*48:01; assay: as above; details: source organism: Listeria monocytogenes
[11] = target: HLA-A*68:02; assay: as above; details: source organism: Listeria monocytogenes
[12] = target: HLA-A*02:01; assay: as above
[13] = target: HLA-A*11:01; assay: as above
[14] = target: HLA-B*07:02; assay: as above
[15] = target: HLA-A*01:01; assay: as above
[16] = target: HLA-B*08:03; assay: as above; details: source organism: Listeria monocytogenes serotype 4b str. H7858
[17] = target: HLA-B*15:17; assay: IEDB peptide-MHC binding, purified MHC/competitive/fluorescence; filed as Kd, often an IC50 or EC50 that approximates it; ≥ and ≤ were set here for values at or beyond the usual limits of such assays; details: source organism: Listeria monocytogenes serotype 4b str. CLIP 80459
[18] = target: HLA-A*03:01; assay: IEDB peptide-MHC binding, purified MHC/competitive/fluorescence; ≥ and ≤ were set here for values at or beyond the usual limits of such assays; details: source organism: Homo sapiens
[19] = target: HLA-A*29:02; assay: as above; details: source organism: Homo sapiens
[20] = target: HLA-B*58:01; assay: as above; details: source organism: Homo sapiens
[21] = target: HLA-B*37:01; assay: as above; details: source organism: Homo sapiens
[22] = target: HLA-B*53:01; assay: as above; details: source organism: Homo sapiens
[23] = target: HLA-B*18:01; assay: as above; details: source organism: Homo sapiens
[24] = target: HLA-A*31:01; assay: as above; details: source organism: Homo sapiens
[25] = target: HLA-B*51:01; assay: as above; details: source organism: Homo sapiens
[26] = target: HLA-B*08:01; assay: as above; details: source organism: Homo sapiens
[27] = target: HLA-B*14:02; assay: as above; details: source organism: Homo sapiens
[28] = target: HLA-A*24:02; assay: as above; details: source organism: Homo sapiens
[29] = target: HLA-A*68:02; assay: as above; details: source organism: Homo sapiens
[30] = target: HLA-A*02:01; assay: as above; details: source organism: Homo sapiens
[31] = target: HLA-A*11:01; assay: as above; details: source organism: Homo sapiens
[32] = target: HLA-A*25:01; assay: as above; details: source organism: Homo sapiens
[33] = target: HLA-B*40:02; assay: as above; details: source organism: Homo sapiens
[34] = target: HLA-B*07:02; assay: as above; details: source organism: Homo sapiens
[35] = target: HLA-B*35:01; assay: as above; details: source organism: Homo sapiens
[36] = target: HLA-A*01:01; assay: as above; details: source organism: Homo sapiens
[37] = target: HLA-B*44:03; assay: as above; details: source organism: Homo sapiens
[38] = target: HLA-B*08:01; assay: IEDB peptide-MHC binding, purified MHC/direct/fluorescence; filed as Kd, often an IC50 or EC50 that approximates it; ≥ and ≤ were set here for values at or beyond the usual limits of such assays; details: source organism: Pseudomonas fluorescens
[39] = target: HLA-A*69:01; assay: as above
[40] = target: HLA-B*35:01; assay: as above; details: source organism: Pseudomonas fluorescens
[41] = target: HLA-B*15:02; assay: IEDB peptide-MHC binding, purified MHC/competitive/fluorescence; filed as Kd, often an IC50 or EC50 that approximates it; ≥ and ≤ were set here for values at or beyond the usual limits of such assays; details: source organism: Pseudomonas fluorescens
[42] = target: HLA-A*02:06; assay: IEDB peptide-MHC binding, purified MHC/direct/fluorescence; filed as Kd, often an IC50 or EC50 that approximates it; ≥ and ≤ were set here for values at or beyond the usual limits of such assays; details: source organism: Yersinia pestis CA88-4125
[43] = target: HLA-A*02:12; assay: as above; details: source organism: Yersinia pestis CA88-4125
[44] = target: HLA-A*02:11; assay: as above; details: source organism: Yersinia pestis CA88-4125
[45] = target: HLA-A*24:02; assay: as above; details: source organism: Yersinia pestis
[46] = target: HLA-A*02:19; assay: as above; details: source organism: Yersinia pestis CA88-4125
[47] = target: HLA-B*44:02; assay: as above; details: source organism: Yersinia pestis
[48] = target: HLA-A*02:16; assay: as above; details: source organism: Yersinia pestis CA88-4125
[49] = target: HLA-A*02:50; assay: IEDB peptide-MHC binding, purified MHC/competitive/fluorescence; filed as Kd, often an IC50 or EC50 that approximates it; ≥ and ≤ were set here for values at or beyond the usual limits of such assays; details: source organism: Yersinia pestis Nepal516
[50] = source organism: Listeria monocytogenes
[51] = source organism: Pseudomonas fluorescens
[52] = source organism: Yersinia pestis

Sequence: EIEIEKNKK
Kd [1, 50]: ≥ 20 µM
Kd [2, 50]: ≥ 20 µM
Kd [3, 50]: ≥ 20 µM
Kd [4, 50]: ≥ 20 µM
Kd [5]: ≥ 20 µM
Kd [6, 50]: ≥ 20 µM
Kd [7, 50]: ≥ 20 µM
Kd [8, 50]: ≥ 20 µM
Kd [9, 50]: ≥ 20 µM
Kd [10]: ≥ 20 µM
Kd [11]: ≥ 20 µM
Kd [12, 50]: ≥ 20 µM
Kd [13, 50]: ≥ 20 µM
Kd [14, 50]: ≥ 20 µM
Kd [15, 50]: ≥ 20 µM
Kd [16]: ≥ 20 µM
Kd [17]: ≥ 20 µM

IC50 [18]: ≥ 20 µM
IC50 [19]: 0.0053 µM
IC50 [20]: ≥ 20 µM
IC50 [21]: ≥ 20 µM
IC50 [22]: ≥ 20 µM
IC50 [23]: 2.77 µM
IC50 [24]: ≥ 20 µM
IC50 [25]: ≥ 20 µM
IC50 [26]: ≥ 20 µM
IC50 [27]: ≥ 20 µM
IC50 [28]: ≥ 20 µM
IC50 [29]: ≥ 20 µM
IC50 [30]: ≥ 20 µM
IC50 [31]: 0.833 µM
IC50 [32]: 1.29 µM
IC50 [33]: ≥ 20 µM
IC50 [34]: ≥ 20 µM
IC50 [35]: 0.0205 µM
IC50 [36]: ≥ 20 µM
IC50 [37]: ≥ 20 µM
Sequence: MVRVLTVIKEY

Kd [1, 51]: ≥ 20 µM
Kd [2, 51]: ≥ 20 µM
Kd [3, 51]: ≥ 20 µM
Kd [6, 51]: ≥ 20 µM
Kd [38]: ≥ 20 µM
Kd [7, 51]: ≥ 20 µM
Kd [39, 51]: ≥ 20 µM
Kd [9, 51]: 0.25 µM
Kd [12, 51]: ≥ 20 µM
Kd [13, 51]: ≥ 20 µM
Kd [14, 51]: ≥ 20 µM
Kd [40]: 0.0654 µM
Kd [15, 51]: 0.135 µM
Kd [41]: 0.04 µM
Sequence: FVSVYFSDY

Sequence: AMQDPNPEV
Kd [1, 52]: ≥ 20 µM
Kd [2, 52]: ≥ 20 µM
Kd [42]: 0.04 µM
Kd [3, 52]: ≥ 20 µM
Kd [4, 52]: ≥ 20 µM
Kd [6, 52]: ≥ 20 µM
Kd [7, 52]: ≥ 20 µM
Kd [43]: 0.006 µM
Kd [8, 52]: ≥ 20 µM
Kd [44]: 0.005 µM
Kd [45]: ≥ 20 µM
Kd [39, 52]: 5.29 µM
Kd [9, 52]: 0.319 µM
Kd [46]: 0.042 µM
Kd [12, 52]: 0.189 µM
Kd [13, 52]: ≥ 20 µM
Kd [14, 52]: ≥ 20 µM
Kd [47]: ≥ 20 µM
Kd [48]: ≤ 0.001 µM
Kd [15, 52]: ≥ 20 µM
Kd [49]: 0.0011 µM
